Assay [1] deals with NS1^HA mutant S114A (Dengue virus type 2 (DENV-2), strain 16681). Description: co-IP.
Assay [2] has as its target NS1^HA mutant W115A (Dengue virus type 2 (DENV-2), strain 16681). Description: co-IP.

In the case of “Envelope protein (E) of Dengue virus (from UniProt P29990) (natural protein)”, the figures for the fold reduction of co-precipitated Envelope against wild-type NS1^HA in assay [1] and in assay [2] were 7.5 fold and 3.8 fold, respectively.
